# Source: patent US20260176254A1, “INHIBITORS OF PROSTATE SPECIFIC MEMBRANE ANTIGEN AND USE THEREOF” (SHANGHAI SINOTAU BIOTECH. CO., LTD, priority 2023, published 2026)
# Tests used:
# [1] = Tissue biodistribution in LnCAP tumor mouse model; parameters: species or system mice; conditions: male, SCID, in vivo, iv, total radioactivity
# From the text: (§1) LnCAP and 22RV1 CDX xenograft tumor models were generated by inoculating 5×10^6 cells/site subcutaneously in male SCID or nude mice (Vital River), respectively. Animals were housed according to IACUC guidance and had accessed to food and water ad libitium. Animals were used for biodistribution study when the tumor dimensions reached around 0.2-0.3 cm^3. […] At each tome point, animals were sacrificed and tissues were collected, weighted, and subjected to radioactivity measurements using gamma counter. Radioactivity in the tissues was presented in % ID/g (percent of injected dose per gram).
# [2] = tested on: LnCAP CDX xenograft tumor; experiment: Tissue biodistribution in LnCAP tumor mouse model; parameters: species or system mice; conditions: male, SCID, in vivo, iv
# From the text: as §1
structure (smiles),measurement,setting,value
"O=C(O)CN1CCN(CC(=O)O)CCN(CC(=O)NC23CCC(Nc4c(N[C@@H](Cc5c6ccccc6cc6ccccc56)C(=O)NCCCC[C@H](NC(=O)N[C@@H](CNC(=O)C(=O)O)C(=O)O)C(=O)O)c(=O)c4=O)(CC2)CC3)CCN(CC(=O)O)CC1 [[^177Lu]Lu-E8, metal not drawn]",tissue uptake dose at 2 h,[1],16.4 ± 1.14 %ID
same,tissue uptake dose at 6 h,[1],4.69 ± 0.79 %ID
same,tissue uptake dose at 24 h,[1],3.21 ± 2.01 %ID
same,tissue uptake dose at 72 h,[1],0.99 ± 0.2 %ID
same,tissue uptake dose at 168 h,[1],0.91 ± 0.03 %ID
same,tissue to tissue ratio,[1]; T/NT ratio Tumor/Bone,183
same,tissue to tissue ratio,[1]; T/NT ratio Tumor/Salivary Gland,220
same,tissue uptake at 2 h,[1]; Tissue biodistribution: Blood,0.87 ± 0.21 %ID/g
same,tissue uptake at 6 h,[1]; Tissue biodistribution: Blood,0.16 ± 0.04 %ID/g
same,tissue uptake at 24 h,[1]; Tissue biodistribution: Blood,0.03 ± 0.01 %ID/g
same,tissue uptake at 72 h,[1]; Tissue biodistribution: Blood,0.03 ± 0.01 %ID/g
same,tissue uptake at 168 h,[1]; Tissue biodistribution: Blood,0.03 ± 0.01 %ID/g
same,tissue uptake at 2 h,[1]; Tissue biodistribution: Bone,0.74 ± 0.16 %ID/g
same,tissue uptake at 6 h,[1]; Tissue biodistribution: Bone,0.33 ± 0.11 %ID/g
same,tissue uptake at 24 h,[1]; Tissue biodistribution: Bone,0.19 ± 0.01 %ID/g
same,tissue uptake at 72 h,[1]; Tissue biodistribution: Bone,0.22 ± 0.02 %ID/g
same,tissue uptake at 168 h,[1]; Tissue biodistribution: Bone,0.26 ± 0.04 %ID/g
same,tissue uptake at 2 h,[1]; Tissue biodistribution: Gland,1.96 ± 0.74 %ID/g
same,tissue uptake at 6 h,[1]; Tissue biodistribution: Gland,0.51 ± 0.1 %ID/g
same,tissue uptake at 24 h,[1]; Tissue biodistribution: Gland,0.18 ± 0.04 %ID/g
same,tissue uptake at 72 h,[1]; Tissue biodistribution: Gland,0.11 ± 0.01 %ID/g
same,tissue uptake at 168 h,[1]; Tissue biodistribution: Gland,0.1 %ID/g
same,tissue uptake at 2 h,[1]; Tissue biodistribution: Heart,1 ± 0.4 %ID/g
same,tissue uptake at 6 h,[1]; Tissue biodistribution: Heart,0.26 ± 0.13 %ID/g
same,tissue uptake at 24 h,[1]; Tissue biodistribution: Heart,0.11 %ID/g
same,tissue uptake at 72 h,[1]; Tissue biodistribution: Heart,0.09 %ID/g
same,tissue uptake at 168 h,[1]; Tissue biodistribution: Heart,0.11 %ID/g
same,tissue uptake at 2 h,[1]; Tissue biodistribution: Kidney,133 ± 12.3 %ID/g
same,tissue uptake at 6 h,[1]; Tissue biodistribution: Kidney,122 ± 20.9 %ID/g
same,tissue uptake at 24 h,[1]; Tissue biodistribution: Kidney,15.7 ± 4.09 %ID/g
same,tissue uptake at 72 h,[1]; Tissue biodistribution: Kidney,1.28 ± 0.08 %ID/g
same,tissue uptake at 168 h,[1]; Tissue biodistribution: Kidney,0.69 ± 0.32 %ID/g
same,tissue uptake at 2 h,[1]; Tissue biodistribution: Liver,0.58 ± 0.17 %ID/g
same,tissue uptake at 6 h,[1]; Tissue biodistribution: Liver,0.33 ± 0.05 %ID/g
same,tissue uptake at 24 h,[1]; Tissue biodistribution: Liver,0.23 ± 0.03 %ID/g
same,tissue uptake at 72 h,[1]; Tissue biodistribution: Liver,0.18 ± 0.02 %ID/g
same,tissue uptake at 168 h,[1]; Tissue biodistribution: Liver,0.15 ± 0.03 %ID/g
same,tissue uptake at 2 h,[1]; Tissue biodistribution: Lung,2.97 ± 0.89 %ID/g
same,tissue uptake at 6 h,[1]; Tissue biodistribution: Lung,0.75 ± 0.14 %ID/g
same,tissue uptake at 24 h,[1]; Tissue biodistribution: Lung,0.18 ± 0.03 %ID/g
same,tissue uptake at 72 h,[1]; Tissue biodistribution: Lung,0.08 ± 0.01 %ID/g
same,tissue uptake at 168 h,[1]; Tissue biodistribution: Lung,0.1 ± 0.04 %ID/g
same,tissue uptake at 2 h,[1]; Tissue biodistribution: Muscle,0.46 ± 0.09 %ID/g
same,tissue uptake at 6 h,[1]; Tissue biodistribution: Muscle,0.14 ± 0.04 %ID/g
same,tissue uptake at 24 h,[1]; Tissue biodistribution: Muscle,0.04 ± 0.01 %ID/g
same,tissue uptake at 72 h,[1]; Tissue biodistribution: Muscle,0.03 %ID/g
same,tissue uptake at 168 h,[1]; Tissue biodistribution: Muscle,0.04 ± 0.01 %ID/g
same,tissue uptake at 2 h,[1]; Tissue biodistribution: Spleen,3.87 ± 1.15 %ID/g
same,tissue uptake at 6 h,[1]; Tissue biodistribution: Spleen,1.05 ± 0.15 %ID/g
same,tissue uptake at 24 h,[1]; Tissue biodistribution: Spleen,0.39 ± 0.14 %ID/g
same,tissue uptake at 72 h,[1]; Tissue biodistribution: Spleen,0.31 ± 0.08 %ID/g
same,tissue uptake at 168 h,[1]; Tissue biodistribution: Spleen,0.43 ± 0.13 %ID/g
same,tissue uptake at 2 h,[1]; Tissue biodistribution: Tumor,30.8 ± 6.34 %ID/g
same,tissue uptake at 6 h,[1]; Tissue biodistribution: Tumor,35.7 ± 5.05 %ID/g
same,tissue uptake at 24 h,[1]; Tissue biodistribution: Tumor,37.9 ± 8.46 %ID/g
same,tissue uptake at 72 h,[1]; Tissue biodistribution: Tumor,48.2 ± 10 %ID/g
same,tissue uptake at 168 h,[1]; Tissue biodistribution: Tumor,44.3 ± 8.77 %ID/g
same,tissue to tissue ratio at 2 h,[1]; Tumor/Blood,38.4 ± 18.7
same,tissue to tissue ratio at 6 h,[1]; Tumor/Blood,237 ± 57.6
same,tissue to tissue ratio at 24 h,[1]; Tumor/Blood,1150 ± 312
same,tissue to tissue ratio at 72 h,[1]; Tumor/Blood,1690 ± 343
same,tissue to tissue ratio at 168 h,[1]; Tumor/Blood,1630 ± 208
same,tissue to tissue ratio at 2 h,[1]; Tumor/Bone,44.7 ± 20.4
same,tissue to tissue ratio at 6 h,[1]; Tumor/Bone,117 ± 45.7
same,tissue to tissue ratio at 24 h,[1]; Tumor/Bone,200 ± 55.6
same,tissue to tissue ratio at 72 h,[1]; Tumor/Bone,223 ± 43.2
same,tissue to tissue ratio at 168 h,[1]; Tumor/Bone,170 ± 19.3
same,tissue to tissue ratio at 2 h,[1]; Tumor/Kidney,0.24 ± 0.07
same,tissue to tissue ratio at 6 h,[1]; Tumor/Kidney,0.3 ± 0.05
same,tissue to tissue ratio at 24 h,[1]; Tumor/Kidney,2.59 ± 1.05
same,tissue to tissue ratio at 72 h,[1]; Tumor/Kidney,37.5 ± 6.4
same,tissue to tissue ratio at 168 h,[1]; Tumor/Kidney,70.9 ± 22.8
same,T/NT ratio Tumor/Bone,[2],169.77
same,T/NT ratio Tumor/Salivary Gland,[2],422.38
